The values below are quoted from earlier work in patent US20200069786A1, “COMPOSITION AND PROCESS FOR PREPARING VACCINE” (TREOS BIO ZRT., priority 2018, published 2020).

Read-outs that look alike come from different tables or passages of the source.

The data set relates to TSA.
The mark [1] stands for this setting: TSA expression rate in MELANOMA
[2] abbreviates: TSA expression rate in LEUKEMIAS
Setting [3] is: TSA expression rate in HEAD and NECK.

B1: MAGE-A5 (protein, UniProt P43359 1-124, looked up)
Putative melanoma-associated …: MSLEQKSQHCKPEEGLDTQEEALGLVGVQAATTEEQEAVSSSSPLVPGTLGEVPAAGSPGPLKSPQGASAIPTAIDFTLWRQSIKGSSNQEEEGPSTSPDPESVFRAALSKKVADLIHFLLLKY
Consider B1, for which the “TSA Expression Rate (ER)” value (BREAST) is 9%. Besides, the “Expression Rate (ER) %” value is, setting by setting: (TSA expression rate in CRC) 7%; under setting [1], 25%.

B2: PAGE2 (protein, UniProt Q7Z2X7 1-111, looked up)
P antigen family member 2: MSELLRARSQSSERGNDQESSQPVGSVIVQEPTEEKRQEEEPPTDNQGIAPSGEIENQAVPAFQGPDMEAFQQELALLKIEDEPGDGPDVREGIMPTFDLTKVLEAGDAQP
With B2, the “Expression Rate (ER) %” value under setting [2] was 4%.

B3: TMEM31 (protein, UniProt Q5JXX7 1-168, looked up)
Transmembrane protein 31: MRLTEKSEGEQQLKPNNSNAPNEDQEEEIQQSEQHTPARQRTQRADTQPSRCRLPSRRTPTTSSDRTINLLEVLPWPTEWIFNPYRLPALFELYPEFLLVFKEAFHDISHCLKAQMEKIGLPIILHLFALSTLYFYKFFLPTILSLSFFILLVLLLLLFIIVFILIFF
Turning to B3, under setting [1], the “Expression Rate (ER) %” value was 63%.

B4: CTAGE1 (protein, UniProt Q96RT6 1-745, looked up)
cTAGE family member 2: MRPDSHPYGFPWELVIRAAVAGFFAVLFLWRSFRSVTSRLYVRREKKFAVALSGLIEEKCKLLEKFSLVQKEYEGYEVESSLKNASFEKEATEAQSLEATCEKLNRFNSELVHEILCLEKELKEEKSKHSEQNELMADISKRIQSLEDESKSLKSQVAEAKMTFKRFQANEERLEIEIQDAWKENSELQESQKQLLQEAEVWKEQVSELIKQKRTFEDSKVHAEQVLNDKENHIKTLTERLLKMKDGVAMLEEDVTDDDNLELEMNSESEDGAYLDNPPKGALKKLIHAAKLNASLKTLEGERNQIYIQLSEVDKTKEELTEHIKNLQTEQASLQSENTHFESENQKLQQKLKVMTELYQENEMKLYRKLIVEEKCRLEKEEKLSKVDEMISHATEELETYRKRAKDLKEFEKTIHFYQKKIILHEKKAHDNWSAAWTAERNLNDLRKENAHNRQKLTEIEFKIKLLEKDPYGLDVPNTAFGRQHSPYGPSPLGWPSSETRASLYPPTLLEGPLRLSPLLPRGGGRGSRGPGNPPDHQITKERGESSCDRLTDPHRAPSDAGPLAPPWEQDYRMMFPPPGQSYPDSALPPQRQDRFYSNCARLSGPAELRSFNMPSLDKMDGSMPSEMESSRNDTKDNLGNLKVPDSSLPAENEATGPGFVPPPLAPIRGLLFPVDTRGPFIRRGPPFPPPPPGTVFGASPDYFSPRDVPGPPRAPFAMRNVYLPRGFLPYRPPRPAFFPPAPTF
As for B4, the “Expression Rate (ER) %” value is reported as 53% (TSA expression rate in BLADDER cancer), 19% (TSA expression rate in CRC) and 72% under setting [2].

B5: BAGE-2 (protein, UniProt Q86Y30 18-109, looked up)
B melanoma antigen 2: RLMKEESPVVSWRLEPEDGTALDVHFVSTLEPLSNAVKRNVPRCIIILVLQEPTAFRISVTSSCFVQNTLTKLLKDRRKMQTVQCATARETS
Regarding B5, the “Expression Rate (ER) %” value under setting [1] is recorded as 23%.

B6: BAGE-3 (protein, UniProt Q86Y29 18-109, looked up)
B melanoma antigen 3: RLMKEESPVVSWRLEPEDGTALDVHFVSTLEPLSNAVKRNVPRCIIILVLQEPTPFRISVTSSCFVQNTLTKLLKDRRKMQTVQCATAQETS
As to B6, under setting [1], the “Expression Rate (ER) %” value is on record as 14%.

B7: LIPI (protein, UniProt Q6XZB0 16-460, looked up)
Lipase member I: DNKRPCLEFSQLSVKDSFRDLFIPRIETILMMYTRNNLNCAEPLFEQNNSLNVNFNTQKKTVWLIHGYRPVGSIPLWLQNFVRILLNEEDMNVIVVDWSRGATTFIYNRAVKNTRKVAVSLSVHIKNLLKHGASLDNFHFIGVSLGAHISGFVGKIFHGQLGRITGLDPAGPRFSRKPPYSRLDYTDAKFVDVIHSDSNGLGIQEPLGHIDFYPNGGNKQPGCPKSIFSGIQFIKCNHQRAVHLFMASLETNCNFISFPCRSYKDYKTSLCVDCDCFKEKSCPRLGYQAKLFKGVLKERMEGRPLRTTVFLDTSGTYPFCTYYFVLSIIVPDKTMMDGSFSFKLLNQLGMIEEPRLYEKNKPFYKLQEVKILAQFYNDFVNISSIGLTYFQSSNLQCSTCTYKIQSLMLKSLTYPERPPLCRYNIVLKDREEVFLNPNTCTPKNT
With B7, the “Expression Rate (ER) %” value (TSA expression rate in CRC) is on record as 0%; the “Expression Rate (ER) %” value under setting [3] is 0%; the “Expression Rate (ER) %” value (TSA expression rate in Kidney) is 25%; the “Expression Rate (ER) %” value under setting [2] is reported as 6%; the “Expression Rate (ER) %” value (TSA expression rate in LUNG cancer) is listed as 0%; the “Expression Rate (ER) %” value under setting [1] is given as 0%.

B8: PAGE5 (protein, UniProt Q96GU1 1-130, looked up)
P antigen family member 5: MQAPWAGNRGWAGTREEVRDMSEHVTRSQSSERGNDQESSQPVGPVIVQQPTEEKRQEEEPPTDNQGIAPSGEIKNEGAPAVQGTDVEAFQQELALLKIEDAPGDGPDVREGTLPTFDPTKVLEAGEGQL
Turning to B8, the “Expression Rate (ER) %” value is, setting by setting: (TSA expression rate in CRC) 11%; (TSA expression rate in Kidney) 44%; under setting [1], 22%.

B9: CTNNA2 (protein, UniProt P26232 1-953, looked up)
Catenin alpha-2: MTSATSPIILKWDPKSLEIRTLTVERLLEPLVTQVTTLVNTSNKGPSGKKKGRSKKAHVLAASVEQATQNFLEKGEQIAKESQDLKEELVAAVEDVRKQGETMRIASSEFADDPCSSVKRGTMVRAARALLSAVTRLLILADMADVMRLLSHLKIVEEALEAVKNATNEQDLANRFKEFGKEMVKLNYVAARRQQELKDPHCRDEMAAARGALKKNATMLYTASQAFLRHPDVAATRANRDYVFKQVQEAIAGISNAAQATSPTDEAKGHTGIGELAAALNEFDNKIILDPMTFSEARFRPSLEERLESIISGAALMADSSCTRDDRRERIVAECNAVRQALQDLLSEYMNNTGRKEKGDPLNIAIDKMTKKTRDLRRQLRKAVMDHISDSFLETNVPLLVLIEAAKSGNEKEVKEYAQVFREHANKLVEVANLACSISNNEEGVKLVRMAATQIDSLCPQVINAALTLAARPQSKVAQDNMDVFKDQWEKQVRVLTEAVDDITSVDDFLSVSENHILEDVNKCVIALQEGDVDTLDRTAGAIRGRAARVIHIINAEMENYEAGVYTEKVLEATKLLSETVMPRFAEQVEVAIEALSANVPQPFEENEFIDASRLVYDGVRDIRKAVLMIRTPEELEDDSDFEQEDYDVRSRTSVQTEDDQLIAGQSARAIMAQLPQEEKAKIAEQVEIFHQEKSKLDAEVAKWDDSGNDIIVLAKQMCMIMMEMTDFTRGKGPLKNTSDVINAAKKIAEAGSRMDKLARAVADQCPDSACKQDLLAYLQRIALYCHQLNICSKVKAEVQNLGGELIVSGTGVQSTFTTFYEVDCDVIDGGRASQLSTHLPTCAEGAPIGSGSSDSSMLDSATSLIQAAKNLMNAVVLTVKASYVASTKYQKVYGTAAVNSPVVSWKMKAPEKKPLVKREKPEEFQTRVRRGSQKKHISPVQALSEFKAMDSF
As for B9, the “Expression Rate (ER) %” value under setting [2] is 45%.

B10: FAM133A (protein, UniProt Q8N9E0 1-248, looked up)
Protein FAM133A: MGKRDNRVAYMNPIAMARWRGPTQSVGPTIQDYLNRPRPTWEEVKKQLENKKTGSKALAEFEEKMNENWKKELEKSREKLLSGNESSSKKRERKKKRKKKSCRSSSSSSSSDSSSSSSDSEDEEKKQGKRRKKKKNRSYKSSQSSTHESESESKESVKKKKKSKDETEKEKDVRSLSKKRKKSYPDDKPLSSESSSESDYEEDVQAKKKRRCEEREQAKEKVKKKKKKQHKKHSKKKKKKSGSSHKSR
For B10, the “Expression Rate (ER) %” value under setting [2] was 83%.

B11: TEX14 (protein, UniProt Q8IWB6 1-1497, looked up)
Inactive …: MSRAVRLPVPCPVQLGTLRNDSLEAQLHEYVKQGNYVKVKKILKKGIYVDAVNSLGQTALFVAALLGLRKFVDVLVDYGSDPNHRCFDGSTPVHAAAFSGNQWILSKLLDAGGDLRLHDERGQNPKTWALTAGKERSTQIVEFMQRCASHMQAIIQGFSYDLLKKIDSPQRLVYSPSWCGGLVQGNPNGSPNRLLKAGVISAQNIYSFGFGKAMPWFQFYLTGATQMAYLGSLPVIGEKEVIQADDEPTFSFFSGPYMVMTNLVWNGSRVTVKELNLPTHPHCSRLRLADLLIAEQEHSSKLRHPYLLQLMAVCLSQDLEKTRLVYERITIGTLFSVLHERRSQFPVLHMEVIVHLLLQISDALRYLHFQGFIHRSLSSYAVHIISPGEARLTNLEYMLESEDRGVQRDLTRVPLPTQLYNWAAPEVILQKAATVKSDIYSFSMIMQEILTDDIPWKGLDGSVVKKAVVSGNYLEADVRLPKPYYDIVKSGIHVKQKDRTMNLQDIRYILKNDLKDFTGAQRTQPTESPRVQRYGLHPDVNVYLGLTSEHPRETPDMEIIELKEMGSQPHSPRVHSLFTEGTLDPQAPDPCLMARETQNQDAPCPAPFMAEEASSPSTGQPSLCSFEINEIYSGCLILEDDIEEPPGAASSLEADGPNQVDELKSMEEELDKMEREACCFGSEDESSSKAETEYSFDDWDWQNGSLSSLSLPESTREAKSNLNNMSTTEEYLISKCVLDLKIMQTIMHENDDRLRNIEQILDEVEMKQKEQEERMSLWATSREFTNAYKLPLAVGPPSLNYIPPVLQLSGGQKPDTSGNYPTLPRFPRMLPTLCDPGKQNTDEQFQCTQGAKDSLETSRIQNTSSQGRPRESTAQAKATQFNSALFTLSSHRQGPSASPSCHWDSTRMSVEPVSSEIYNAESRNKDDGKVHLKWKMEVKEMAKKAATGQLTVPPWHPQSSLTLESEAENEPDALLQPPIRSPENTDWQRVIEYHRENDEPRGNGKFDKTGNNDCDSDQHGRQPRLGSFTSIRHPSPRQKEQPEHSEAFQASSDTLVAVEKSYSHQSMQSTCSPESSEDITDEFLTPDGEYFYSSTAQENLALETSSPIEEDFEGIQGAFAQPQVSGEEKFQMRKILGKNAEILPRSQFQPVRSTEDEQEETSKESPKELKEKDISLTDIQDLSSISYEPDSSFKEASCKTPKINHAPTSVSTPLSPGSVSSAASQYKDCLESITFQVKTEFASCWNSQEFIQTLSDDFISVRERAKKLDSLLTSSETPPSRLTGLKRLSSFIGAGSPSLVKACDSSPPHATQRRSLPKVEAFSQHHIDELPPPSQELLDDIELLKQQQGSSTVLHENTASDGGGTANDQRHLEEQETDSKKEDSSMLLSKETEDLGEDTERAHSTLDEDLERWLQPPEESVELQDLPKGSERETNIKDQKVGEEKRKREDSITPERRKSEGVLGTSEEDELKSCFWKRLGWSESSRIIVLDQSDLSD
Regarding B11, the “Expression Rate (ER) %” value under setting [2] is 5%.

B12: XAGE-2 (protein, UniProt Q96GT9 1-111, looked up)
X antigen family member 2: MSWRGRSTYRPRPRRSLQPPELIGAMLEPTDEEPKEEKPPTKSRNPTPDQKREDDQGAAEIQVPDLEADLQELCQTKTGDGCEGGTDVKGKILPKAEHFKMPEAGEGKSQV
Take B12: the “Expression Rate (ER) %” value was 6% under setting [3], 14% under setting [1] and 14% (TSA expression rate in PEDIATRIC).
